# Assay results from patent US20170298096A1 (CANIMGUIDE THERAPEUTICS, published 2017).
# No end group written: not given here.
# T1: His-tagged P3028 (human, not fully specified)
# T1 construct: the tag is put first after 'PGE73=His-tag-P3028'; also called PGE73; not shown: His-tag
# T1 peptide: {His‑tag}-VFDEFKPLVEEPQNLIK
# T2: His-tagged P3028 (human, also: His-tag, terminus and sequence not given here)
# T2 construct: used in solution in the PEPSCAN (rampo) ELISA; also called PGE73; His-tag-P3028; not shown: His tag
# T2 peptide: VFDEFKPLVEEPQNLIK
# B1: P28R S11D (peptide)
# peptide: KKLDTFFVKLDLFTER
# B2: P28R T5E (peptide)
# peptide: KKLDEFFVKLSLFTER
# B3: P28R T5R (peptide)
# peptide: KKLDRFFVKLSLFTER
# B4: P28R T14V (peptide)
# peptide: KKLDTFFVKLSLFVER
# B5: P28R V8Y (peptide)
# peptide: KKLDTFFYKLSLFTER
# B6: P28R T14K (peptide)
# peptide: KKLDTFFVKLSLFKER
# B7: P28R V8L (peptide)
# peptide: KKLDTFFLKLSLFTER
# B8: P28R T5Q (peptide)
# peptide: KKLDQFFVKLSLFTER
# B9: P28R V8F (peptide)
# peptide: KKLDTFFFKLSLFTER
# B10: P28R T14A (peptide)
# peptide: KKLDTFFVKLSLFAER
# B11: P28R V8Q (peptide)
# peptide: KKLDTFFQKLSLFTER
# B12: P28R T14D (peptide)
# peptide: KKLDTFFVKLSLFDER
# B13: P28R T14F (peptide)
# peptide: KKLDTFFVKLSLFFER
# B14: P28R T14M (peptide)
# peptide: KKLDTFFVKLSLFMER
# B15: P28R T14N (peptide)
# peptide: KKLDTFFVKLSLFNER
# B16: P28R T14I (peptide)
# peptide: KKLDTFFVKLSLFIER
# B17: P28R T5K (peptide)
# peptide: KKLDKFFVKLSLFTER
# B18: P28R T5N (peptide)
# peptide: KKLDNFFVKLSLFTER
# B19: P28R S11Y (peptide)
# peptide: KKLDTFFVKLYLFTER
# B20: P28R V8A (peptide)
# peptide: KKLDTFFAKLSLFTER
# B21: P28R S11I (peptide)
# peptide: KKLDTFFVKLILFTER
# B22: P28R V8K (peptide)
# peptide: KKLDTFFKKLSLFTER
# notes: also called P27; SCF27
# B23: P28R T14Y (peptide)
# peptide: KKLDTFFVKLSLFYER
# B24: P28R T14H (peptide)
# peptide: KKLDTFFVKLSLFHER
# B25: P28R S11F (peptide)
# peptide: KKLDTFFVKLFLFTER
# B26: P28R V8I (peptide)
# peptide: KKLDTFFIKLSLFTER
# B27: P28R V8N (peptide)
# peptide: KKLDTFFNKLSLFTER
# B28: P28R S11M (peptide)
# peptide: KKLDTFFVKLMLFTER
# B29: P28R T5L (peptide)
# peptide: KKLDLFFVKLSLFTER
# B30: P28R V8S (peptide)
# peptide: KKLDTFFSKLSLFTER
# B31: P28R V8E (peptide)
# peptide: KKLDTFFEKLSLFTER
# B32: P28R T14R (peptide)
# peptide: KKLDTFFVKLSLFRER
# B33: P28R V8M (peptide)
# peptide: KKLDTFFMKLSLFTER
# B34: P28R S11W (peptide)
# peptide: KKLDTFFVKLWLFTER
# B35: P28R T14W (peptide)
# peptide: KKLDTFFVKLSLFWER
# B36: P28R V8R (peptide)
# peptide: KKLDTFFRKLSLFTER
# B37: P28R T5F (peptide)
# peptide: KKLDFFFVKLSLFTER
# B38: P28R V8W (peptide)
# peptide: KKLDTFFWKLSLFTER
# B39: P28R S11T (peptide)
# peptide: KKLDTFFVKLTLFTER
# B40: P28R S11H (peptide)
# peptide: KKLDTFFVKLHLFTER
# B41: P28R T5S (peptide)
# peptide: KKLDSFFVKLSLFTER
# B42: P28R T5M (peptide)
# peptide: KKLDMFFVKLSLFTER
# B43: P28R S11V (peptide)
# peptide: KKLDTFFVKLVLFTER
# B44: P28R T5Y (peptide)
# peptide: KKLDYFFVKLSLFTER
# B45: P28R S11E (peptide)
# peptide: KKLDTFFVKLELFTER
# B46: P28R T5A (peptide)
# peptide: KKLDAFFVKLSLFTER
# B47: P28R S11L (peptide)
# peptide: KKLDTFFVKLLLFTER
# B48: P28R T14S (peptide)
# peptide: KKLDTFFVKLSLFSER
# B49: P28R T14L (peptide)
# peptide: KKLDTFFVKLSLFLER
# B50: P28R S11R (peptide)
# peptide: KKLDTFFVKLRLFTER
# B51: P28R T5V (peptide)
# peptide: KKLDVFFVKLSLFTER
# B52: P28R T14Q (peptide)
# peptide: KKLDTFFVKLSLFQER
# B53: P28R V8D (peptide)
# peptide: KKLDTFFDKLSLFTER
# B54: P28R V8T (peptide)
# peptide: KKLDTFFTKLSLFTER
# B55: P28R S11N (peptide)
# peptide: KKLDTFFVKLNLFTER
# B56: P28R V8H (peptide)
# peptide: KKLDTFFHKLSLFTER
# B57: P28R T14E (peptide)
# peptide: KKLDTFFVKLSLFEER
# B58: P28R T5H (peptide)
# peptide: KKLDHFFVKLSLFTER
# B59: P28R S11Q (peptide)
# peptide: KKLDTFFVKLQLFTER
# B60: P28R T5I (peptide)
# peptide: KKLDIFFVKLSLFTER
# B61: P28R T5D (peptide)
# peptide: KKLDDFFVKLSLFTER
# B62: P28R S11K (peptide)
# peptide: KKLDTFFVKLKLFTER
# B63: P28R T5W (peptide)
# peptide: KKLDWFFVKLSLFTER
# B64: SEQ ID NO 3 (peptide)
# peptide: RKLDTFFVKLSLFTER
# B65: SEQ ID NO 4 (peptide)
# peptide: KKGDTFFVKLSLFTER
# B66: SEQ ID NO 8 (peptide)
# peptide: KKLDTVFVKLSLFTER
# B67: SEQ ID NO 6 (peptide)
# peptide: KKLDQFFVKLSLFTER
# B68: SEQ ID NO 11 (peptide)
# peptide: KKLDTFVVKLSLFTER
# B69: SEQ ID NO 5 (peptide)
# peptide: KKEDTFFVKLSLFTER
# B70: SEQ ID NO 7 (peptide)
# peptide: KKLDTAFVKLSLFTER
# Target: T1, His-tagged P3028
# Assay: chip ELISA
row,Binder,ELISA signal
1,B1,322
2,B2,341
3,B3,430
4,B4,380
5,B5,211
6,B6,259
7,B7,411
8,B8,535
9,B9,358
10,B10,305
11,B11,271
12,B12,159
13,B13,348
14,B14,501
15,B15,599
16,B16,375
17,B17,237
18,B18,436
19,B19,402
20,B20,299
21,B21,289

row,Binder,ELISA signal
1,B22,253
2,B23,270
3,B24,463
4,B25,250
5,B26,401
6,B27,203
7,B28,744
8,B29,311
9,B30,216
10,B31,139
11,B32,264
12,B33,221
13,B34,324
14,B35,374
15,B36,365
16,B37,290
17,B38,228
18,B39,520
19,B40,535
20,B41,458
21,B42,475

row,Binder,ELISA signal
1,B43,392
2,B44,425
3,B45,234
4,B46,346
5,B47,213
6,B48,369
7,B49,360
8,B50,333
9,B51,374
10,B52,301
11,B53,122
12,B54,298
13,B55,451
14,B56,213
15,B57,110
16,B58,391
17,B59,768
18,B60,293
19,B61,295
20,B62,323
21,B63,418

# Target: T2, His-tagged P3028
# Assay: PEPSCAN ELISA (rampo)
row,Binder,rampo value [rampo units]
1,B64,> 500
2,B65,> 500
3,B66,> 500
4,B67,> 500
5,B68,> 500
6,B69,> 500
7,B70,> 500
